The values below come from paper PMC5472220 (Nature structural & molecular biology, 2017).

This series deals with the molecule itself. Description: cryo-EM structure.

B1: E. coli CTP synthase (ecCTPS), wild type (enzyme)
chain: MTTNYIFVTGGVVSSLGKGIAAASLAAILEARGLNVTIMKLDPYINVDPGTMSPIQHGEVFVTEDGAETDLDLGHYERFIRTKMSRRNNFTTGRIYSDVLRKERRGDYLGATVQVIPHITNAIKERVLEGGEGHDVVLVEIGGTVGDIESLPFLEAIRQMAVEIGREHTLFMHLTLVPYMAASGEVKTKPTQHSVKELLSIGIQPDILICRSDRAVPANERAKIALFCNVPEKAVISLKDVDSIYKIPGLLKSQGLDDYICKRFSLNCPEANLSEWEQVIFEEANPVSEVTIGMVGKYIELPDAYKSVIEALKHGGLKNRVSVNIKLIDSQDVETRGVEILKGLDAILVPGGFGYRGVEGMITTARFARENNIPYLGICLGMQVALIDYARHVANMENANSTEFVPDCKYPVVALITEWRDENGNVEVRSEKSDLGGTMRLGAQQCQLVDDSLVRQLYNAPTIVERHRHRYEVNNMLLKQIEDAGLRVAGRSGDDQLVEIIEVPNHPWFVACQFHPEFTSTPRDGHPLFAGFVKAASEFQKRQAK
As to B1, the “stoichiometry N” value was determined as 4.

For orientation: stoichiometry N means the number of molecules, sites or subunits per partner or assembly.
